# Key:
# stromelysin 1 = stromelysin 1 (Homo sapiens, UniProt P08254); experiment: Inhibition with type II collagen, FlSub3 cleavage; format: biochemical; conditions: for Improvement In Selectivity (Strom1 v Col-3): 44 ug/ml Type II Collagen vs no Type II Collagen, FlSb3; for Average Percent Inhibition from 1.1 to 6.6 Hours / Average Percent Inhibition: STR1(.80 nM)
# Experimental: (§1) In a 96 well plate, collagenase 3 (0.013 nM), collagenase 1 (1.25 nM), stromelysin 1 (0.8 nM), gelatinase A (0.025 nM), or gelatinase B (0.008 nM) were reacted with 20 uM FlSub3 in standard assay buffer in the presence of varying concentrations of bovine type II collagen (0.18-44 ug/ml). The type II collagen, a 1 mg/ml stock in 0.5M acetic acid, was transferred into assay buffer by passing the material through a biospin P6 column from Amersham. The reaction was initiated by addition of substrate to enzyme containing either buffer or an appropriate amount of type II collagen. Data points were taken every 15 min over a period of 15 hours using an excitation and emission wavelength of 350 and 485 nm respectively. The usable data (1-6 hours), was taken and the percent inhibition by type II collagen was calculated for each enzyme and plotted as a function of inhibitor concentration and time in the assay. It should be noted that the percent inhibition varies with time as the bovine substrate is consumed during the reaction course.
# gelatinase B = gelatinase B (Homo sapiens, UniProt P14780); experiment: Inhibition with type II collagen, FlSub3 cleavage; format: biochemical; conditions: for Improvement In Selectivity (Gel-B v Col-3): 44 ug/ml Type II Collagen vs no Type II Collagen, FlSb3; for Average Percent Inhibition from 1.1 to 6.6 Hours / Average Percent Inhibition: GELB(.008 nM)
# Chain of gelatinase B (P14780 94-707): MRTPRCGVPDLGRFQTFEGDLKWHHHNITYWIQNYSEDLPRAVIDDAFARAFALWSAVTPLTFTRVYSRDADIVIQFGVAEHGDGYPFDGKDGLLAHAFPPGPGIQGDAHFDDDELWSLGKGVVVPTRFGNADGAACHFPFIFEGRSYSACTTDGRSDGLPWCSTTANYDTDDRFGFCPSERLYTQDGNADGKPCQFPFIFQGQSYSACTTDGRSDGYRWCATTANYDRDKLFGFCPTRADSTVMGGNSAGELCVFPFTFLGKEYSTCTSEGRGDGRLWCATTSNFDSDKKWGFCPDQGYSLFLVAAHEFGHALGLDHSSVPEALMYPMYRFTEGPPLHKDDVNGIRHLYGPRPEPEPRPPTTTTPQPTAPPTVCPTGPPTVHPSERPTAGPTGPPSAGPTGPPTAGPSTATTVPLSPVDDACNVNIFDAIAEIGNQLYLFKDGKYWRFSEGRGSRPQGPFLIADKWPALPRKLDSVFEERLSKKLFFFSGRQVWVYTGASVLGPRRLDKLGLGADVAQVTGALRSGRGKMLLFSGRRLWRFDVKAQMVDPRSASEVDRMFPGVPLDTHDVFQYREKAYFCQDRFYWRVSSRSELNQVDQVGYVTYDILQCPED
# Experimental: as §1
# [1] = TypeIICOL(1.6 ug/ul), FISb3, hour 0.10 to 1.10
# [2] = TypeIICOL(1.6 ug/ul), FISb3, hour 1.10 to 2.10
# [3] = TypeIICOL(1.6 ug/ul), FISb3, hour 1.10 to 6.60
# [4] = TypeIICOL(1.6 ug/ul), FISb3, hour 2.10 to 3.10
# [5] = TypeIICOL(1.6 ug/ul), FISb3, hour 3.10 to 4.10
# [6] = TypeIICOL(1.6 ug/ul), FISb3, hour 4.10 to 5.10
# [7] = TypeIICOL(1.6 ug/ul), FISb3, hour 5.10 to 6.10
# [8] = TypeIICOL(4.9 ug/ul), FISb3, hour 0.10 to 1.10
# [9] = TypeIICOL(4.9 ug/ul), FISb3, hour 1.10 to 2.10
# [10] = TypeIICOL(4.9 ug/ul), FISb3, hour 1.10 to 6.60
# [11] = TypeIICOL(4.9 ug/ul), FISb3, hour 2.10 to 3.10
# [12] = TypeIICOL(4.9 ug/ul), FISb3, hour 3.10 to 4.10
# [13] = TypeIICOL(4.9 ug/ul), FISb3, hour 4.10 to 5.10
# [14] = TypeIICOL(4.9 ug/ul), FISb3, hour 5.10 to 6.10
# [15] = TypeIICOL(15 ug/ul), FISb3, hour 0.10 to 1.10
# [16] = TypeIICOL(15 ug/ul), FISb3, hour 1.10 to 2.10
# [17] = TypeIICOL(15 ug/ul), FISb3, hour 1.10 to 6.60
# [18] = TypeIICOL(15 ug/ul), FISb3, hour 2.10 to 3.10
# [19] = TypeIICOL(15 ug/ul), FISb3, hour 3.10 to 4.10
# [20] = TypeIICOL(15 ug/ul), FISb3, hour 4.10 to 5.10
# [21] = TypeIICOL(15 ug/ul), FISb3, hour 5.10 to 6.10
# [22] = TypeIICOL(44 ug/ul), FISb3, hour 0.10 to 1.10
# [23] = TypeIICOL(44 ug/ul), FISb3, hour 1.10 to 2.10
# [24] = TypeIICOL(44 ug/ul), FISb3, hour 1.10 to 6.60
# [25] = TypeIICOL(44 ug/ul), FISb3, hour 2.10 to 3.10
# [26] = TypeIICOL(44 ug/ul), FISb3, hour 3.10 to 4.10
# [27] = TypeIICOL(44 ug/ul), FISb3, hour 4.10 to 5.10
# [28] = TypeIICOL(44 ug/ul), FISb3, hour 5.10 to 6.10
# [29] = TypeIICOL(.18 ug/ul), FISb3, hour 0.10 to 1.10
# [30] = TypeIICOL(.18 ug/ul), FISb3, hour 1.10 to 2.10
# [31] = TypeIICOL(.18 ug/ul), FISb3, hour 1.10 to 6.60
# [32] = TypeIICOL(.18 ug/ul), FISb3, hour 2.10 to 3.10
# [33] = TypeIICOL(.18 ug/ul), FISb3, hour 3.10 to 4.10
# [34] = TypeIICOL(.18 ug/ul), FISb3, hour 4.10 to 5.10
# [35] = TypeIICOL(.18 ug/ul), FISb3, hour 5.10 to 6.10
# Chain of stromelysin 1 (P08254 100-477): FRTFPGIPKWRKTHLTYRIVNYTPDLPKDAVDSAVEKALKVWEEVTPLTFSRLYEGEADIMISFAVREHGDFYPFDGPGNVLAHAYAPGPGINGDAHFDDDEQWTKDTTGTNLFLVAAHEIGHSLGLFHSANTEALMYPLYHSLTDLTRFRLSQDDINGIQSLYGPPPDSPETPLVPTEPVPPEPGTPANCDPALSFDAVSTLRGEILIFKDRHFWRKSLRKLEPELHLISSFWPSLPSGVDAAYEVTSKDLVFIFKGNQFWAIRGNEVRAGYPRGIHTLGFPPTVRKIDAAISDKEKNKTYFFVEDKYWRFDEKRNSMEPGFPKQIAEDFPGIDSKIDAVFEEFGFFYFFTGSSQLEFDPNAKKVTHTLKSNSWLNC
substance,measurement,setting,value
"Type II Collagen: bovine type II collagen, full length MMP substrate used as inhibitor of gelatinases",Improvement In Selectivity (Strom1 v Col-3),stromelysin 1,2.5 fold
same,Improvement In Selectivity (Strom1 v Col-3),stromelysin 1; listed as collagen,four
same,Average Percent Inhibition from 1.1 to 6.6 Hours,stromelysin 1; Type II Collagen 0.18 ug/ml,15%
same,Average Percent Inhibition from 1.1 to 6.6 Hours,stromelysin 1; Type II Collagen 0.54 ug/ml,13%
same,Average Percent Inhibition from 1.1 to 6.6 Hours,stromelysin 1; Type II Collagen 1.63 ug/ml,19%
same,Average Percent Inhibition from 1.1 to 6.6 Hours,stromelysin 1; Type II Collagen 4.89 ug/ml,12%
same,Average Percent Inhibition from 1.1 to 6.6 Hours,stromelysin 1; Type II Collagen 14.67 ug/ml,18%
same,Average Percent Inhibition from 1.1 to 6.6 Hours,stromelysin 1; Type II Collagen 44.00 ug/ml,19%
same,Average Percent Inhibition,stromelysin 1; [1],−10%
same,Average Percent Inhibition,stromelysin 1; [2],24%
same,Average Percent Inhibition,stromelysin 1; [3],19%
same,Average Percent Inhibition,stromelysin 1; [4],22%
same,Average Percent Inhibition,stromelysin 1; [5],18%
same,Average Percent Inhibition,stromelysin 1; [6],17%
same,Average Percent Inhibition,stromelysin 1; [7],16%
same,Average Percent Inhibition,stromelysin 1; [8],50%
same,Average Percent Inhibition,stromelysin 1; [9],23%
same,Average Percent Inhibition,stromelysin 1; [10],12%
same,Average Percent Inhibition,stromelysin 1; [11],11%
same,Average Percent Inhibition,stromelysin 1; [12],8%
same,Average Percent Inhibition,stromelysin 1; [13],8%
same,Average Percent Inhibition,stromelysin 1; [14],8%
same,Average Percent Inhibition,stromelysin 1; [15],57%
same,Average Percent Inhibition,stromelysin 1; [16],28%
same,Average Percent Inhibition,stromelysin 1; [17],18%
same,Average Percent Inhibition,stromelysin 1; [18],18%
same,Average Percent Inhibition,stromelysin 1; [19],14%
same,Average Percent Inhibition,stromelysin 1; [20],13%
same,Average Percent Inhibition,stromelysin 1; [21],14%
same,Average Percent Inhibition,stromelysin 1; [22],62%
same,Average Percent Inhibition,stromelysin 1; [23],32%
same,Average Percent Inhibition,stromelysin 1; [24],19%
same,Average Percent Inhibition,stromelysin 1; [25],18%
same,Average Percent Inhibition,stromelysin 1; [26],14%
same,Average Percent Inhibition,stromelysin 1; [27],14%
same,Average Percent Inhibition,stromelysin 1; [28],14%
same,Average Percent Inhibition,stromelysin 1; [29],22%
same,Average Percent Inhibition,stromelysin 1; [30],22%
same,Average Percent Inhibition,stromelysin 1; [31],15%
same,Average Percent Inhibition,stromelysin 1; [32],15%
same,Average Percent Inhibition,stromelysin 1; [33],12%
same,Average Percent Inhibition,stromelysin 1; [34],12%
same,Average Percent Inhibition,stromelysin 1; [35],12%
same,Average Percent Inhibition,"stromelysin 1; TypeIICOL(.55 ug/ul), FLSb3, hour 0.10 to 1.10",43%
same,Average Percent Inhibition,"stromelysin 1; TypeIICOL(.55 ug/ul), FLSb3, hour 1.10 to 2.10",26%
same,Average Percent Inhibition,"stromelysin 1; TypeIICOL(.55 ug/ul), FLSb3, hour 1.10 to 6.60",13%
same,Average Percent Inhibition,"stromelysin 1; TypeIICOL(.55 ug/ul), FLSb3, hour 2.10 to 3.10",14%
same,Average Percent Inhibition,"stromelysin 1; TypeIICOL(.55 ug/ul), FLSb3, hour 3.10 to 4.10",10%
same,Average Percent Inhibition,"stromelysin 1; TypeIICOL(.55 ug/ul), FLSb3, hour 4.10 to 5.10",8%
same,Average Percent Inhibition,"stromelysin 1; TypeIICOL(.55 ug/ul), FLSb3, hour 5.10 to 6.10",8%
same,Improvement In Selectivity (Gel-B v Col-3),gelatinase B,46 fold
same,Improvement In Selectivity (Gel-B v Col-3),gelatinase B; listed as collagen,approximately 80 fold
same,Average Percent Inhibition from 1.1 to 6.6 Hours,gelatinase B; Type II Collagen 0.18 ug/ml,9%
same,Average Percent Inhibition from 1.1 to 6.6 Hours,gelatinase B; Type II Collagen 0.54 ug/ml,9%
same,Average Percent Inhibition from 1.1 to 6.6 Hours,gelatinase B; Type II Collagen 1.63 ug/ml,12%
same,Average Percent Inhibition from 1.1 to 6.6 Hours,gelatinase B; Type II Collagen 4.89 ug/ml,38%
same,Average Percent Inhibition from 1.1 to 6.6 Hours,gelatinase B; Type II Collagen 14.67 ug/ml,65%
same,Average Percent Inhibition from 1.1 to 6.6 Hours,gelatinase B; Type II Collagen 44.00 ug/ml,84%
same,Average Percent Inhibition,gelatinase B; [1],−28%
same,Average Percent Inhibition,gelatinase B; [2],14%
same,Average Percent Inhibition,gelatinase B; [3],12%
same,Average Percent Inhibition,gelatinase B; [4],19%
same,Average Percent Inhibition,gelatinase B; [5],15%
same,Average Percent Inhibition,gelatinase B; [6],11%
same,Average Percent Inhibition,gelatinase B; [7],7%
same,Average Percent Inhibition,gelatinase B; [8],35%
same,Average Percent Inhibition,gelatinase B; [9],43%
same,Average Percent Inhibition,gelatinase B; [10],38%
same,Average Percent Inhibition,gelatinase B; [11],47%
same,Average Percent Inhibition,gelatinase B; [12],41%
same,Average Percent Inhibition,gelatinase B; [13],35%
same,Average Percent Inhibition,gelatinase B; [14],30%
same,Average Percent Inhibition,gelatinase B; [15],57%
same,Average Percent Inhibition,gelatinase B; [16],67%
same,Average Percent Inhibition,gelatinase B; [17],65%
same,Average Percent Inhibition,gelatinase B; [18],72%
same,Average Percent Inhibition,gelatinase B; [19],69%
same,Average Percent Inhibition,gelatinase B; [20],64%
same,Average Percent Inhibition,gelatinase B; [21],59%
same,Average Percent Inhibition,gelatinase B; [22],41%
same,Average Percent Inhibition,gelatinase B; [23],82%
same,Average Percent Inhibition,gelatinase B; [24],84%
same,Average Percent Inhibition,gelatinase B; [25],87%
same,Average Percent Inhibition,gelatinase B; [26],87%
same,Average Percent Inhibition,gelatinase B; [27],85%
same,Average Percent Inhibition,gelatinase B; [28],83%
same,Average Percent Inhibition,gelatinase B; [29],3%
same,Average Percent Inhibition,gelatinase B; [30],12%
same,Average Percent Inhibition,gelatinase B; [31],9%
same,Average Percent Inhibition,gelatinase B; [32],11%
same,Average Percent Inhibition,gelatinase B; [33],9%
same,Average Percent Inhibition,gelatinase B; [34],7%
same,Average Percent Inhibition,gelatinase B; [35],5%
same,Average Percent Inhibition,"gelatinase B; TypeIICOL(.55 ug/ul), FISb3, hour 0.10 to 1.10",3%
same,Average Percent Inhibition,"gelatinase B; TypeIICOL(.55 ug/ul), FISb3, hour 1.10 to 2.10",10%
same,Average Percent Inhibition,"gelatinase B; TypeIICOL(.55 ug/ul), FISb3, hour 1.10 to 6.60",9%
same,Average Percent Inhibition,"gelatinase B; TypeIICOL(.55 ug/ul), FISb3, hour 2.10 to 3.10",12%
same,Average Percent Inhibition,"gelatinase B; TypeIICOL(.55 ug/ul), FISb3, hour 3.10 to 4.10",10%
same,Average Percent Inhibition,"gelatinase B; TypeIICOL(.55 ug/ul), FISb3, hour 4.10 to 5.10",8%
same,Average Percent Inhibition,"gelatinase B; TypeIICOL(.55 ug/ul), FISb3, hour 5.10 to 6.10",6%
same,inhibition of gelatinase B by type II collagen,"gelatinase B; highest concentration (44 ug/ml), six hour time course, FlSub3",Almost complete inhibition
